Measurements from the supplement of paper PMC9732359.
± gives the uncertainty stated by the source.

Test: protein stability index of a GFP-peptide fusion (yeast GPS) (PSI 1-4); higher = more stable; sorted into four equal gates, so the index is relative within each strain
In short: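 Tiled yeast protein peptides of 17 residues were each joined downstream of GFP, on plasmids that also express Cherry. The pooled library was maintained in yeast, and mid-log cultures in leucine-free medium were sorted into four equal gates on the GFP/Cherry ratio. Plasmids from every gate were amplified by PCR and sequenced on Illumina, with barcodes linking reads to strains. The protein stability index of a peptide is its gate-number-weighted read frequency summed over the gates.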

Sequence | protein stability index (doa10∆) | protein stability index (pdr5∆) | protein stability index (san1∆) | protein stability index (ubr1∆)
DMLEHINLAMNESSLAL [SRB4] | 1.49 ± 0.094 | 1.28 ± 0.11 | 1.25 ± 0.15 | 1.52 ± 0.092
YEADQRKLFPNWIKPSD [PRP8] | 2.99 ± 0.092 | 2.86 ± 0.085 | 2.67 ± 0.11 | 2.96 ± 0.049
DATANATANATANATAN [DSN1] | 3.25 ± 0.086 | 3.04 ± 0.071 | 3.37 ± 0.053 | 3.12 ± 0.043
REIDALKKQLHVSHEAM [YIL149C/MLP2] | 2.88 ± 0.05 | 2.97 ± 0.047 | 2.91 ± 0.048 | 2.82 ± 0.049
KKALKVRTSATFRLPKT [RPL25] | 2.87 ± 0.13 |  |  | 3.18 ± 0.13
LYSYLIKENFFERIMIL [YJL039C/NUP192] | 1.48 ± 0.063 | 1.42 ± 0.073 | 1.49 ± 0.2 | 1.26 ± 0.11
AETTFLQDVIALSIADD [RPC53] | 2.24 ± 0.07 | 1.8 ± 0.065 | 1.97 ± 0.12 | 2.18 ± 0.07
PTLPTNHNKTKLLKSLK [PRP8] | 2.33 ± 0.07 | 1.6 ± 0.056 | 1.82 ± 0.076 | 2.41 ± 0.057
MEYLKSSKSLDLNTRIS [RPN5] | 2.83 ± 0.057 | 1.69 ± 0.051 | 2.34 ± 0.063 | 2.61 ± 0.055
VQDKDTLSNAERAKNVN [GAL11] |  | 2.71 ± 0.23 | 2.71 ± 0.18 | 2.91 ± 0.12
AYSMGAQNQGGQVSMSQ [PGD1] | 3.15 ± 0.095 | 3.2 ± 0.084 | 3.02 ± 0.094 | 3.22 ± 0.076
LRLKPGRKYTTLGKLST [RPL16B] | 2.69 ± 0.057 | 2.64 ± 0.062 | 3.03 ± 0.036 | 2.97 ± 0.037
KKAKLVLIANDVDPIEL [RPL8A] | 3.17 ± 0.15 | 2.81 ± 0.068 | 3.09 ± 0.07 | 2.83 ± 0.072
VHDIFSKIFNESFPDDI [CDC53] | 2.86 ± 0.069 | 2.91 ± 0.065 | 2.87 ± 0.059 | 2.82 ± 0.06
QPPTNVQPTIGQLPQLP [SNF5] | 3.14 ± 0.055 | 3.12 ± 0.063 | 3.09 ± 0.054 | 3.15 ± 0.043
LKVYKVGDIVDIKANGS [RPL21A] | 2.35 ± 0.054 | 2.14 ± 0.044 | 2.07 ± 0.052 | 2.11 ± 0.029
SILEHSGIRLIEPELFN [FAS2] | 2.67 ± 0.068 | 2.99 ± 0.061 | 2.76 ± 0.058 | 2.86 ± 0.039
ELLEYSDDIAENDNLDN [YCG1] | 3.06 ± 0.058 | 3.27 ± 0.068 | 3.21 ± 0.049 | 3.25 ± 0.054
VLKSHSNDFEEGSTIRY [YMR129W/POM152] | 2.44 ± 0.075 | 2.8 ± 0.099 | 2.93 ± 0.067 | 2.88 ± 0.068
DPKFVNSLLAKLKDSKK [YML103C/NUP188] | 2.54 ± 0.2 | 2.86 ± 0.1 | 1.99 ± 0.15 | 2.54 ± 0.082
TLLREVVFTRLVQRCWQ [CSN12] | 1.4 ± 0.061 | 1.24 ± 0.048 | 1.39 ± 0.12 | 1.54 ± 0.055
TIEHAADITDGNNTELT [YCG1] | 3.29 ± 0.081 | 3.46 ± 0.082 | 3.33 ± 0.078 | 3.31 ± 0.069
MSNQALYEKLEQTRTIL [SRB6] | 3.11 ± 0.3 |  |  | 
SLKNDLPQFRSSIQESL [ECM29] | 2.9 ± 0.076 | 2.92 ± 0.07 | 3.22 ± 0.077 | 3.07 ± 0.087
NNCEDFVSRPDRTMLAP [FAS1] | 3.28 ± 0.25 | 2.98 ± 0.17 | 2.93 ± 0.26 | 3.2 ± 0.11
LNVSNTKENGDFTLPED [PRP8] | 2.98 ± 0.1 | 3.14 ± 0.11 | 3.12 ± 0.049 | 3.21 ± 0.069
QPTIRKDGLKLVGSWKK [RPO21] | 3.52 ± 0.19 |  | 3.3 ± 0.14 | 

Sequence | protein stability index (doa10∆) | protein stability index (pdr5∆) | protein stability index (san1∆) | protein stability index (ubr1∆)
MSASNANDFQLTIVTCK [SRB8] | 2.33 ± 0.044 | 2.41 ± 0.037 | 2.42 ± 0.043 | 2.03 ± 0.031
TLKPTFSFTEPAQKDSS [YOR098C/NUP1] | 2.78 ± 0.059 | 3.05 ± 0.067 | 2.99 ± 0.065 | 2.53 ± 0.037
ISYTSHIEGVVILKKNP [RPN1] | 2.57 ± 0.059 | 3.14 ± 0.078 | 2.87 ± 0.077 | 2.52 ± 0.046
HKHREARGLTATGKKSR [RPL15A] | 3.58 ± 0.2 | 3.37 ± 0.15 | 3.31 ± 0.069 | 3.15 ± 0.068
STVKVSDLNLTDRQKKL [YLR018C/POM34] | 2.9 ± 0.063 | 2.75 ± 0.048 | 2.79 ± 0.047 | 2.76 ± 0.037
NISISTSELGNDDFSEV [BRR2] | 2.94 ± 0.12 | 3.19 ± 0.096 | 2.46 ± 0.078 | 3.12 ± 0.077
RMSSEEVNSLLLQVNKT [GRR1] | 3.03 ± 0.16 | 3.13 ± 0.2 | 2.96 ± 0.19 | 2.78 ± 0.16
LNTLFNPVTLNEDSKAF [NUT1] | 2.57 ± 0.062 | 1.84 ± 0.057 | 1.65 ± 0.091 | 1.92 ± 0.043
GKGDNDNGLGPLKYAPH [SWI3] | 2.69 ± 0.058 | 3.39 ± 0.12 | 2.85 ± 0.085 | 2.7 ± 0.052
KDKGVYVVTSDEHPKTL [SIR2] | 2.78 ± 0.076 | 3.24 ± 0.075 | 3.25 ± 0.055 | 2.98 ± 0.079
GLMKSYKIPKVMKDIYK [ESC2] | 3.15 ± 0.27 | 3.38 ± 0.12 | 2.42 ± 0.26 | 2.92 ± 0.11
VNCLELLINTNFNKFFK [PCI8] | 1.77 ± 0.045 | 1.88 ± 0.048 | 1.96 ± 0.065 | 1.99 ± 0.064
SEGEQKSAEGNNIDQSL [YAR002W/NUP60] | 2.98 ± 0.063 | 2.94 ± 0.048 | 2.94 ± 0.066 | 3.05 ± 0.065
GQLGEMAKCLDNPDQGI [YCS4] | 3.13 ± 0.14 | 3.49 ± 0.12 | 3.39 ± 0.065 | 3.29 ± 0.15
SRPLKKVKILEQIDENW [SWI3] | 2.94 ± 0.077 | 3.11 ± 0.067 | 2.82 ± 0.072 | 2.99 ± 0.044
DEEIIQLHFSLLDEEAE [RPO21] | 2.86 ± 0.078 | 3.01 ± 0.09 | 2.89 ± 0.083 | 2.83 ± 0.23
KLLQLFLTPMDSIDLAP [YML103C/NUP188] | 1.9 ± 0.071 | 1.54 ± 0.062 | 1.76 ± 0.092 | 1.36 ± 0.038
DLGIKYDPSIGIFGMDF [RPL11A] | 2.85 ± 0.04 | 3.06 ± 0.041 | 2.96 ± 0.039 | 3 ± 0.037
FQAHEITSFLLSKMENV [NAS6] | 1.79 ± 0.079 | 1.53 ± 0.045 | 1.66 ± 0.094 | 1.69 ± 0.045
LSIWIKNYPEYFLKVTF [IRR1] | 1.88 ± 0.056 | 1.77 ± 0.037 | 2.2 ± 0.076 | 1.8 ± 0.047
LEASLNSITKDNIDYAP [YJL039C/NUP192] | 2.7 ± 0.05 | 2.43 ± 0.041 | 2.47 ± 0.039 | 2.27 ± 0.026
LKENAGSLTFLDNKGSG [YIL149C/MLP2] | 3.31 ± 0.17 | 3.37 ± 0.1 | 3.55 ± 0.12 | 3.48 ± 0.066
GSAADTQAIADIVQYHL [PRE3] |  | 3.26 ± 0.19 | 2.88 ± 0.17 | 2.99 ± 0.13
RRTYNTLEDKFLLLAVN [ISW2] | 1.34 ± 0.084 | 1.67 ± 0.076 | 1.18 ± 0.19 | 1.28 ± 0.071
FGRKKRKGGPATAEKLP [RPT2] | 3.56 ± 0.089 | 3.28 ± 0.12 | 3.24 ± 0.075 | 3.34 ± 0.11
IVPIFQLISAVLVSMGS [YJL039C/NUP192] |  | 2.39 ± 0.28 |  | 1.22 ± 0.091
KGGKGLGKGGAKRHRKI [HHF1] | 3.7 ± 0.22 | 3.59 ± 0.19 | 3.65 ± 0.067 | 3.59 ± 0.053
